Results: the supplement of paper PMC10567573

B1: MGC27345 (parent)
chain: KYMPHLCQDSSGEVSCQCQLHPPR

Variants of: B1
Assay: protein stability index of a GFP-peptide fusion (GPS, HEK-293T) (PSI 1-6); higher = more stable
Details: c terminus: a fixed tail appended
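Further: lentivirally expressed fusions sorted by FACS into six bins by GFP to DsRed ratio, PSI derived from sequencing read proportions per bin multiplied by bin number.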

In order of falling protein stability index:
1. KYMPHLCQDYSGEVSCQCQLHPPR [S10Y]  4.19
2. KYMPWLCQDSSGEVSCQCQLHPPR [H5W]  3.69
3. KYMPHLCQDSGGEVSCQCQLHPPR [S11G]  3.17
4. KYMPHLCTDSSGEVSCQCQLHPPR [Q8T]  3.04
5. KYMPHSCQDSSGEVSCQCQLHPPR [L6S]  2.98
6. KYMPHLCQDDSGEVSCQCQLHPPR [S10D]  2.94
7. KYMPCLCQDSSGEVSCQCQLHPPR [H5C]  2.92
8. KYMPHLCQDHSGEVSCQCQLHPPR [S10H]  2.91
9. KYMPHLCRDSSGEVSCQCQLHPPR [Q8R]  2.83
10. KYMPHLCMDSSGEVSCQCQLHPPR [Q8M]  2.83
11. KYMPHLCQDSSQEVSCQCQLHPPR [G12Q]  2.8
12. KYMPHLCVDSSGEVSCQCQLHPPR [Q8V]  2.73
13. KYMPHLCQDCSGEVSCQCQLHPPR [S10C]  2.73
14. KYMPHECQDSSGEVSCQCQLHPPR [L6E]  2.71
15. KYMPHLCQDSSHEVSCQCQLHPPR [G12H]  2.69
16. KYMPHGCQDSSGEVSCQCQLHPPR [L6G]  2.66
17. KYMPHLCWDSSGEVSCQCQLHPPR [Q8W]  2.65
18. KYMPHLCADSSGEVSCQCQLHPPR [Q8A]  2.65
19. KYMPHLCQDFSGEVSCQCQLHPPR [S10F]  2.65
20. KYMPHVCQDSSGEVSCQCQLHPPR [L6V]  2.65
21. KYMPHDCQDSSGEVSCQCQLHPPR [L6D]  2.64
22. KYMPHLCQDISGEVSCQCQLHPPR [S10I]  2.63
23. KYMPQLCQDSSGEVSCQCQLHPPR [H5Q]  2.6
24. KYMPHLCDDSSGEVSCQCQLHPPR [Q8D]  2.6
25. KYMPRLCQDSSGEVSCQCQLHPPR [H5R]  2.57
26. KYMPHLCQDESGEVSCQCQLHPPR [S10E]  2.57
27. KYMPHLCNDSSGEVSCQCQLHPPR [Q8N]  2.54
28. KYMPHLCCDSSGEVSCQCQLHPPR [Q8C]  2.53
29. KYMPHLCQDSSDEVSCQCQLHPPR [G12D]  2.52
30. KYMPHLCQDSCGEVSCQCQLHPPR [S11C]  2.5
31. KYMPHQCQDSSGEVSCQCQLHPPR [L6Q]  2.47
32. KYMPHLCGDSSGEVSCQCQLHPPR [Q8G]  2.42
33. KYMPHLCQDMSGEVSCQCQLHPPR [S10M]  2.39
34. KYMPHCCQDSSGEVSCQCQLHPPR [L6C]  2.39
35. KYMPHLCQDSSCEVSCQCQLHPPR [G12C]  2.38
36. KYMPHLCFDSSGEVSCQCQLHPPR [Q8F]  2.38
37. KYMPHLCIDSSGEVSCQCQLHPPR [Q8I]  2.38
38. KYMPHTCQDSSGEVSCQCQLHPPR [L6T]  2.34
39. KYMPELCQDSSGEVSCQCQLHPPR [H5E]  2.3
40. KYMPPLCQDSSGEVSCQCQLHPPR [H5P]  2.27
41. KYMPHLCQDQSGEVSCQCQLHPPR [S10Q]  2.26
42. KYMPHICQDSSGEVSCQCQLHPPR [L6I]  2.23
43. KYMPVLCQDSSGEVSCQCQLHPPR [H5V]  2.22
44. KYMPTLCQDSSGEVSCQCQLHPPR [H5T]  2.21
45. KYMPMLCQDSSGEVSCQCQLHPPR [H5M]  2.15
46. KYMPHLCPDSSGEVSCQCQLHPPR [Q8P]  2.15
47. KYMPHKCQDSSGEVSCQCQLHPPR [L6K]  2.14
48. KYMPHLCQDSTGEVSCQCQLHPPR [S11T]  2.1
49. KYMPHLCQDSSEEVSCQCQLHPPR [G12E]  2.1
50. KYMPHHCQDSSGEVSCQCQLHPPR [L6H]  2.1
51. KYMPHLCQDSSLEVSCQCQLHPPR [G12L]  2.08
52. KYMPHLCQDNSGEVSCQCQLHPPR [S10N]  2.08
53. KYMPHLCQDGSGEVSCQCQLHPPR [S10G]  2.08
54. KYMPHLCQDASGEVSCQCQLHPPR [S10A]  2.06
55. KYMPHLCQDPSGEVSCQCQLHPPR [S10P]  2.05
56. KYMPHRCQDSSGEVSCQCQLHPPR [L6R]  2.05
57. KYMPHLCHDSSGEVSCQCQLHPPR [Q8H]  2.03
58. KYMPHLCQDKSGEVSCQCQLHPPR [S10K]  2.02
59. KYMPHLCQDSSAEVSCQCQLHPPR [G12A]  2
60. KYMPYLCQDSSGEVSCQCQLHPPR [H5Y]  1.98
61. KYMPHLCEDSSGEVSCQCQLHPPR [Q8E]  1.97
62. KYMPHLCQDTSGEVSCQCQLHPPR [S10T]  1.97
63. KYMPHLCQDSSPEVSCQCQLHPPR [G12P]  1.96
64. KYMPHYCQDSSGEVSCQCQLHPPR [L6Y]  1.96
65. KYMPSLCQDSSGEVSCQCQLHPPR [H5S]  1.89
66. KYMPHLCQDSSMEVSCQCQLHPPR [G12M]  1.88
67. KYMPHLCQDSSTEVSCQCQLHPPR [G12T]  1.87
68. KYMPALCQDSSGEVSCQCQLHPPR [H5A]  1.8
69. KYMPHMCQDSSGEVSCQCQLHPPR [L6M]  1.79
70. KYMPHNCQDSSGEVSCQCQLHPPR [L6N]  1.79
71. KYMPHLCLDSSGEVSCQCQLHPPR [Q8L]  1.77
72. KYMPHACQDSSGEVSCQCQLHPPR [L6A]  1.73
73. KYMPHLCQDSPGEVSCQCQLHPPR [S11P]  1.72
74. KYMPHLCQDSIGEVSCQCQLHPPR [S11I]  1.71
75. KYMPHLCYDSSGEVSCQCQLHPPR [Q8Y]  1.7
76. KYMPHLCQDSSREVSCQCQLHPPR [G12R]  1.69
77. KYMPHLCQDSSNEVSCQCQLHPPR [G12N]  1.67
78. KYMPDLCQDSSGEVSCQCQLHPPR [H5D]  1.66
79. KYMPNLCQDSSGEVSCQCQLHPPR [H5N]  1.64
80. KYMPHLCQDSQGEVSCQCQLHPPR [S11Q]  1.63
81. KYMPHLCQDWSGEVSCQCQLHPPR [S10W]  1.6
82. KYMPHLCQDSSKEVSCQCQLHPPR [G12K]  1.59
83. KYMPHFCQDSSGEVSCQCQLHPPR [L6F]  1.59
84. KYMPHLCQDLSGEVSCQCQLHPPR [S10L]  1.57
85. KYMPHPCQDSSGEVSCQCQLHPPR [L6P]  1.57
86. KYMPHLCQDVSGEVSCQCQLHPPR [S10V]  1.56
87. KYMPHLCQDSSYEVSCQCQLHPPR [G12Y]  1.53
88. KYMPHWCQDSSGEVSCQCQLHPPR [L6W]  1.53
89. KYMPILCQDSSGEVSCQCQLHPPR [H5I]  1.49
90. KYMPHLCQDSSIEVSCQCQLHPPR [G12I]  1.47
91. KYMPGLCQDSSGEVSCQCQLHPPR [H5G]  1.45
92. KYMPFLCQDSSGEVSCQCQLHPPR [H5F]  1.34
93. KYMPHLCQDSSFEVSCQCQLHPPR [G12F]  1.34
94. KYMPHLCQDRSGEVSCQCQLHPPR [S10R]  1
